Measured values reported in paper PMC11630628 (Molecular Plant, 2024).

Columns and labels:
[1] = tested on: purified His-tagged MIK2 ectodomain; assay: Pull-down assay with biotinylated peptides; type: binding, Arabidopsis thaliana; conditions: biotinylated peptide, streptavidin magnetic beads, 20 mM Tris-HCl pH 7.3, 150 mM NaCl, 0.1% NP-40, anti-His Western blot, repeated three times, conclusion also rests on MST
Protocol: Subsequently, 30 μL streptavidin magnetic beads (New England Biolabs) were added to each sample and incubated for 1 h at 4°C, followed by washing 5–6 times with 1.0 mL of interactive buffer. The proteins bound to the beads were then eluted using interactive buffer containing 5× SDS loading buffer, and western blot analysis was conducted as previously described ([Lan et al., 2023]). In the competitive binding assay, 50 nM purified MIK2 protein featuring a His-tag at its C-terminal was initially mixed with 250 nM of biotinylated SCOOP10. […] After thorough mixing, the beads underwent 5–6 washes to meticulously remove any residual proteins, and then the preparations were subjected to detailed analysis via western blotting to probe the interactions.

[2] = molecular target: T1, MIK2 ectodomain (MIK2^LRR-MBP) (Arabidopsis thaliana, UniProt Q8VZG8); assay: MST competitive binding analysis; conditions: MST competition (Figure 5F)
T1 construct: expressing only the ectodomain (residues 45–707); made in house; host or cells: E. coli strain BL21
T1 sequence (Q8VZG8 45-707): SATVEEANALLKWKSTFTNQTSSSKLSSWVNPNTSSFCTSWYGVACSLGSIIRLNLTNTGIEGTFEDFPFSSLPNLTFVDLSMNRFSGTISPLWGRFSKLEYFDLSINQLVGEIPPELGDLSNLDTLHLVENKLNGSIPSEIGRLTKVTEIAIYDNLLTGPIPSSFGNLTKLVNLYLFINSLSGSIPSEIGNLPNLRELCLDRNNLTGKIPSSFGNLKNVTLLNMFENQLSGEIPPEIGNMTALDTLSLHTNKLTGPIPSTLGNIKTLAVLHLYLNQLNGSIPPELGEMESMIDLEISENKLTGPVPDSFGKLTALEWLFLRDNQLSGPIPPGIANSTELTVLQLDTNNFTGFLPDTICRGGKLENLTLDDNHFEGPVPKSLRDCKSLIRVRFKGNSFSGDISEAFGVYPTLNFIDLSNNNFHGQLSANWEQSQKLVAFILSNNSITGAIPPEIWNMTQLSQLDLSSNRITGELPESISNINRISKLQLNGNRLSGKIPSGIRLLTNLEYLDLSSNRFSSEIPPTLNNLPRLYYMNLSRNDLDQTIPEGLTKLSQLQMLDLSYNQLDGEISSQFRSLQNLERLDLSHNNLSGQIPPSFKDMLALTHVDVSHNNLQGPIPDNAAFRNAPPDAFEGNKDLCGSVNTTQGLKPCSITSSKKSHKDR
Protocol: To express MIK2 protein in the soluble form, the truncated sequence of MIK2 (MIK2 ^LRR) expressing only the ectodomain (residues 45–707) was amplified from the gMIK2-Blunt subclone vector and inserted into the pET41 vector, fused with a 6× His-MBP tag. Then, the ectodomain of MIK2 (MIK2^LRR) in the absence of the putative N-terminal signal peptide was expressed in E. coli strain BL21 (TransGen). Cell cultures were grown to 0.6 optical density 600 and then induced with 0.3 mM isopropyl-β-D-thiogalactopyranoside for 30 h at 13°C. The mixture was then centrifuged at 12 000 rpm to separate the cells from the medium. The pellets were resuspended with the binding buffer (20 mM phosphate buffer, 500 mM NaCl, 50 mM imidazole, pH 7.4). The cells were sonicated on ice for 30 min in the lysis buffer (0.2 mg/mL lysozyme, 20 μg/mL DNAse, 1 mM MgCl2, 1 mM PMSF). […]
A Monolith NT.115 system (Nanotemper Technologies) was used to perform MST assays. […] The concentration of purified MIK2^LRR was measured with the BCA Protein Quantification Kit (Vazyme) and then diluted with ddH2O to 20 μM. […] MST results were analyzed using the Nanotemper analysis software (MO. Affinity) ([Jerabek-Willemsen et al., 2011]). […] The dissociation constant Ki was determined using the Ki Finder Tool available on the NanoTemper Technologies website (http://www.nanotempertechnologies.com/get-it-all/tools/ki-finder/).

[3] = tested on: bak1-5 serk4 double mutant; parameters: method as in Hou et al., 2021b; conditions: ref Hou et al., 2021b; cited from earlier work
[4] = tested on: ORE1, NAP and SAG12 transcripts; assay: qPCR expression of senescence genes in detached leaves; type: cell-based, Arabidopsis thaliana; conditions: 1 μM peptide, 0, 1, 5, 10 h, detached sixth rosette leaves, vs mock, ACTIN reference, three experiments
From the text: (§1) Total RNA was isolated from Arabidopsis leaves with the RNAiso Plus (TAKARA) and reverse transcribed using the PrimeScript RT reagent Kit (TAKARA). qPCR reactions were implemented in an Applied Biosystems 7500 Real-Time PCR system with the SYBR Premix Ex Taq II (TAKARA). ACTIN was used as the reference gene for qPCR analyses. The primers used for qPCR are listed in Supplemental Table 2.

[5] = tested on: bik1 pbl1 double mutants; parameters: method as in Hou et al., 2021b; conditions: ref Hou et al., 2021b; cited from earlier work
[6] = tested on: MIK2-GFP (pMIK2::MIK2-GFP/mik2-1 plants); assay: MIK2-phosphorylation assay in detached leaves; type: cell-based, Arabidopsis thaliana; conditions: 5 μM peptide, 0, 1, 2, 4 h, pMIK2::MIK2-GFP/mik2-1 leaves; GFP IP, anti-pThr blot; vs mock
Protocol: Transgenic A. thaliana T3 homozygous plants expressing MIK2-GFP under the control of its native promoter were grown under long-day conditions (16 h light/8 h dark) for 4 weeks before sampling. […] Leaves were subjected to vacuum infiltration at room temperature for 30 min. Following treatment, the leaves were rapidly frozen in liquid nitrogen and ground into a fine powder. […] The samples were incubated for 30 min at 4°C with gentle agitation, followed by centrifugation at 14 000 rpm for 20 min at 4°C to remove debris. The supernatant was then incubated with anti-GFP agarose beads (Abcam, AE079) overnight at 4°C for immunoprecipitation (IP). […] The 30-μL eluted proteins were resolved on 7.5% SDS-PAGE gels and transferred onto polyvinylidene fluoride membranes. […] Abcam, AB6556), goat anti-rabbit immunoglobulin G (IgG) (H + L)-horseradish peroxidase (HRP) antibody (1:4000; Abcam, AB6721) and its phosphorylation status using anti-pThr antibodies (1:750, Cell Signaling, 9386), goat anti-mouse IgG (H + L)-HRP antibodies (1:2000; Abcam, AB6789), respectively.

[7] = tested on: PROSCOOP10 transcript; assay: qPCR expression of PROSCOOP10 in detached leaves; type: cell-based, Arabidopsis thaliana
From the text: as §1

[8] = tested on: Arabidopsis mik2 mutant detached rosette leaves; assay: Detached leaf senescence assay, mik2 mutants; type: in vivo, Arabidopsis thaliana; conditions: SCOOP10 1 μM (Figures 3A–3C)
Protocol: A. thaliana ecotype Columbia-0 and mutants used in this study include mik2-1 (SALK_06269), mik2-2 (CS419958), proscoop10-1 (SALK_080439), and proscoop10-2 (SALK_027949), which were obtained from ABRC. The proscoop12 CRISPR-Cas9-generated mutants were kindly provided by Dr. Elia Stahi at the University of Lausanne, Switzerland ([Stahl et al., 2022]). Imbibed seeds were incubated at 4°C in a refrigerator for 2 days before sowing on the soil mix (3 parts commercial soil: 1 parts vermiculite) and grown under the long-day condition (16 h light/8 h dark) in a growth chamber with 150 μmol m^−2 s^−1 light intensity. For the senescence phenotyping of detached leaves, the fifth and sixth rosette leaves of 25-day-old plants were removed and placed in Petri dishes with the adaxial side facing up. The Petri dishes were sealed with parafilm to prevent water loss, and the leaves were incubated with deionized water. The application of exogenous peptides followed the previously established method ([Zhang et al., 2022a], [2022b]). […] All data including plant phenotypes and gene expression presented in this study were analyzed with GraphPad Prism 9, and at least three biological replicates were included in each experiment. Chl content, photochemical efficiency of PSII (Fv/Fm ratio), and ion leakage were determined as previously described ([Zhang et al., 2020], [2022b]; [Guo et al., 2022]).

B1: SERINE-RICH ENDOGENOUS PEPTIDE 10 (peptide)
peptide: ALPYHHELFLGRKRMNYYKPNSAIGTPSSTSDHAPGSNGRKLMSIYRPNGDIFTGPSGSGHGGGRTPAP
notes: processed from PROSCOOP10; synthesized by GenScript
Q: With B1 as the molecule, how does the “interaction with MIK2 ectodomain” value [1] read?
A: Its value is “SCOOP10 interacts with MIK2”.

Q: And the “effect of competitor peptide on the MIK2 complex of the other peptide (MST)” value [2]?
A: The value was “limited effect on the MIK2-SCOOP12 complex stability maintenance”.

Q: What about the “root growth inhibition in bak1-5 serk4 (published)” value [3] of the same molecule?
A: Its value is “milder phenotype in response to SCOOP10 treatment”.

Q: And the “expression of ORE1, NAP and SAG12” value [4]?
A: The value was “strongly and relatively quickly induced the expression of the tested transcripts”.

Q: And the “root growth inhibition in bik1 pbl1 (published)” value [5]?
A: The value was “only mild alleviation of the SCOOP10-induced root growth inhibition”.

Q: And the MIK2 kinase phosphorylation [6]?
A: The MIK2 kinase phosphorylation was “MIK2 phosphorylation decreased drastically over time compared to the mock controls”.

Q: What about the PROSCOOP10 expression ([7]; 1 μM peptide, detached leaves, vs mock, qPCR) of the same molecule?
A: Its PROSCOOP10 expression is “reduced expression”.

Q: What about the “PROSCOOP10 expression, SCOOP10/SCOOP10-pretreated leaves” value ([7]; reduction in SCOOP10/SCOOP10-pretreated leaves vs mock, 1 μM) of the same molecule?
A: The value was “more pronounced”.

Q: And the “senescence induction, WT compared with mik2 mutants” value [8]?
A: The value was “More profound senescence was induced by SCOOP10 treatments in WT than in mik2 mutant plants”.
